Measured values taken from US20250249077A1, “NAMPT FOR WOUND-HEALING AND STIMULATING HAIR GROWTH AND/OR REGROWTH” (Innovative Surgical Regeneration Holdings, LLC, priority 2022, published 2025).
Entries after “also recorded” stand apart in the source; their conditions may differ.

Assays:
nondiabetic wounds = test: Splinted full thickness excisional wound model, nondiabetic (wildtype) mice; type: in vivo; details: versus control hydrogel
Description: (§1) Diabetic, aged diabetic, and nondiabetic mice were purchased from JAX labs. Bilateral, symmetric full thickness wounds (which recapitulate complete skin tissue loss) were generated on the murine dorsum using a biopsy punch; wounds were treated with the disclosed therapeutic or the control vehicle.
(§2) NAMPT hydrogel was administered on wounds, control hydrogel served as control.

hair follicles = test: Hair growth after intradermal injection of NAMPT in the skin of mice; type: in vivo
Source text: The mean number of hair follicles per field in the NAMiPT group is 33.93. The mean number of hair follicles per field in the control group is 27.47. The difference between the number of hair follicles per field between the NAMPT group and control group is statistically significant (p-value 0.0097 by unpaired t-test (GraphPad Prism 9).

diabetic wounds [1] = test: Splinted full thickness excisional wound model, diabetic db/db mice; type: in vivo
Description: as §1, §2

diabetic wounds [2] = test: Single-cell RNA sequencing of NAMPT treated versus control diabetic wounds; type: in vivo, mice
Source text: Studies including single-cell RNA sequencing performed by the authors have elucidated the mechanism of action of the disclosed novel treatment on complete skin regeneration and prevention of scarring.
We performed gene ontology (GO) analysis on differentially expressed genes between the fibroblast clusters (clusters #0, #5, #10, and #12) to determine whether specific functions could be assigned to the different fibroblast subpopulations (FIG. 2A-E). […] Next, we performed gene ontology analysis on differentially expressed genes between NAMPT treated versus control Cluster #0 fibroblasts.
We utilized the CellChat package to infer cell-cell communication in NAMPT treated diabetic wounds versus control diabetic wounds.
Impaired cellular proliferation in diabetic wounds leads to delayed granulation tissue formation and delayed reepithelialization. We utilized the Tricycle package40 to determine the impact of NAMPT on cell cycle of diabetic wounds.

[3] = pseudotime lineage analysis, relative to control wounds

B1: NAMPT: Nicotinamide phosphoribosyltransferase protein, rate-limiting enzyme of the salvage NAD synthesis pathway; human sequence SEQ ID NO: 1; recombinant (protein, listed as Homo sapiens)
chain: MNPAAEAEFNILLATDSYKVTHYKQYPPNTSKVYSYFECREKKTENSKLRKVKYEETVFYGLQYILNKYLKGKVVTKEKIQEAKDVYKEHFQDDVFNEKGWNYILEKYDGHLPIEIKAVPEGFVIPRGNVLFTVENTDPECYWLTNWIETILVQSWYPITVATNSREQKKILAKYLLETSGNLDGLEYKLHDFGYRGVSSQETAGIGASAHLVNFKGTDTVAGLALIKKYYGTKDPVPGYSVPAAEHSTITAWGKDHEKDAFEHIVTQFSSVPVSVVSDSYDIYNACEKIWGEDLRHLIVSRSTQAPLIIRPDSGNPLDTVLKVLEILGKKFPVTENSKGYKLLPPYLRVIQGDGVDINTLQEIVEGMKQKMWSIENIAFGSGGGLLQKLTRDLLNCSFKCSYVVTNGLGINVFKDPVADPNKRSKKGRLSLHRTPAGNFVTLEEGKGDLEEYGQDLLHTVFKNGKVTKSYSFDEIRKNAQLNIELEAAHH
Nondiabetic wounds
  skin regeneration: sufficient to regenerate all tissues of the skin
Hair follicles; 15 fields at 200× magnification, counted manually, unblinded
  mean number of hair follicles per field: 33.93
Hair follicles; NAMPT group minus control group, unpaired t test
  Difference between means (B − A) ± SEM, hair follicles per field: 6.467 ± 2.329
Hair follicles; NAMPT treated mice skin versus control
  hair follicles, histological analysis versus control: significant increase; also recorded: increased hair follicles
Hair follicles; intradermal injection every 48 hours, compared to control
  hair growth: promoted hair growth visibly by 10 and 14 days
Diabetic wounds [1]; diabetic wounds, versus control hydrogel
  skin regeneration: sufficient to regenerate all tissues of the skin
Diabetic wounds [1]; immunohistochemistry, diabetic wounds vs control, n=3, p=0.0166
  percentage of area staining positive for Keratin15: significantly increases
Diabetic wounds [1]; immunohistochemistry, diabetic wounds vs control, n=3, p=0.0332
  percentage of area staining positive for b-catenin: significantly increases
Diabetic wounds [2]; CellChat analysis
  Wnt-Fzd ligand-receptor interactions: increased diversity, number, and strength
Diabetic wounds [2]; Cluster #0 fibroblasts, treated vs control
  gene expression for collagens Col1a1, Col1a2, Col3a1, Col5a2, Col6a1: significantly increased
Diabetic wounds [2]; Cluster #1 undifferentiated epidermal cells, compared to controls
  epidermal stem cell markers Krt5, Krt14, Krt15, Trp63, Itgb1, Itga6: significantly higher
Diabetic wounds [2]; KEGG pathway analysis
  KEGG oxidative phosphorylation, fatty acid metabolism, TCA cycle, mTOR signaling and pyruvate metabolism pathways: significantly enhances
Diabetic wounds [2]; Tricycle cell cycle analysis, compared to controls
  proportion of cells in the S phase, G2/M phase, and M phase: increases
Diabetic wounds [2]; epidermal stem cell populations
  Hgf signaling: promoted
Diabetic wounds [2]; pseudotime lineage analysis, relative to control treated wounds
  Krt79+ and Krt6a/Krt6b+ cells: enriched
Diabetic wounds [2]; [3]
  Krt77+ cells: increased
  Pparg+/Fasn+ cells: enriched
Diabetic wounds [2]; treated diabetic wounds
  immune pathways (MHC-II, CD6, ALCAM, VISTA, MHC-I, CD80): upregulated
  pro-inflammatory pathways, including TNF and IL1: activation
